From patent publication US8927207B2, “miRNAs as therapeutic targets in cancer” (Research Foundation of State University of New York, priority 2008, dated 2015)

Columns and labels:
[1] = test system: HT-29 (mut-p53) cells; assay: WST-1 cellular proliferation after miR-192 transfection; type: cell-based, human; conditions: HT-29, n=3
Experimental: (§1) miR-192 inhibits cell proliferation of HCT-116 (wt-p53), RKO (wt-p53) and HT-29 (mut-p53) colon cancer cell lines. To assess the functional significance of miR-192, the impact of miR-192 on cellular proliferation was evaluated using HCT-116 (wt-p53), HCT-116 (null-p53), RKO (wt-p53) and HT-29 (mut-p53) colon cancer cell lines. The human colon cancer cell lines HCT-116 (wt-p53) and HCT-116 (null-p53) were provided by Prof Bert Vogelstein (The Johns Hopkins University) and were maintained in McCoy's 5A medium (Life Technologies). The other two human colon cancer cell lines, RKO (wt-p53) and HT-29 (mut-p53), were obtained from the American Type Culture Collection. The HT-29 (mut-p53) cell line has a missense mutation in codon 273 of p53 resulting in an Argto-His substitution. RKO (wt-p53) and HT-29 (mut-p53) cells were maintained in Eagle's MEM and Iscove's Modified Dulbecco's Medium at the American Type Culture Collection, respectively. All media were supplemented with 10% dialyzed fetal bovine serum (Hyclone Laboratories). All cell lines were grown at 37° C. in a humidified incubator with 5% CO2. The cell lines were transfected as described above (see Examples 1 and 2).
(§2) The cellular proliferation was evaluated as follows. HCT-116 (wt-p53) (FIG. 4A), HCT-116 (null-p53) (FIG. 4C), RKO (wt-p53) (FIG. 4B), and HT-29 cells (FIG. 4D) were plated in 96-well plates in triplicate at 1×10^3 cells per well after transfection with miR-192 precursor (illustrated as—Δ—) or non-specific control miRNA (illustrated as—□—). Cells were cultured for 24, 48, 72, or 96 hours. The absorbance at 450 and 630 nm was measured after incubation with 10 μl of WST-1 for 2 hours. A non-specific miR was used as a negative control.

[2] = test system: HCT-116 (null-p53) cells; assay: as above; type: cell-based, human; conditions: n=3
Experimental: as §1, §2

[3] = test system: HCT-116 (wt-p53) cells; assay: as above; type: cell-based, human; conditions: overexpression vs non-specific miR, n=3
Experimental: as §1, §2

[4] = test system: RKO (wt-p53) cells; assay: as above; type: cell-based, human; conditions: n=3
Experimental: as §1, §2

[5] = test system: DHFR mRNA; assay: real time qRT-PCR of DHFR mRNA; type: cell-based; conditions: U-2 OS cells
Experimental: Expression levels of TS or DHFR mRNA were analyzed using real time qRT-PCR analysis (FIG. 15).

[6] = test system: Rb; assay: Western immunoblot of Rb, HCT-116 (wt-p53); type: cell-based, human
Experimental: The expression of miR-192 on the expression of E2F3 and Rb in HCT-116 (wt-p53) cells was also analyzed. In these experiments, HVT-116 (wt-p53) cells, as described above (see Example 3) were transfected with non-specific miR (FIG. 7, lane 2), DHFR siRNA (FIG. 7, lane 3) or miR-192 (FIG. 7, lane 4) according to the procedure described above (see Examples 1 and 2). One HCT-116 (wt-p53) sample was not transfected, and used as a negative control (FIG. 7, lane 1). Western immunoblot analysis was performed according to the procedure described above (see Example 5), except that rabbit anti-E2F-3 polyclonal antibody (1:1000, C-18) (Santa Cruz Biotechnology) was used.

[7] = test system: p21; assay: western immunoblot of p21 in HCT-116 (wt-p53) and U-2 OS cells; type: cell-based; conditions: both HCT-116 (wt-p53) and U-2 OS cells, 48 h after transfection
Excerpt: miR-215 increases the expression of cell cycle control genes p53 and p21. p53 and p21, a downstream target of the p53 pathway of growth control, are reported to block cells at G2 checkpoint mainly through inhibiting activity of Cdc2, the cyclin-dependent kinase that normally drives cells into mitosis, which is the ultimate target of pathways that mediate rapid arrest in G2 in response to DNA damage. To further analyze the mechanism of cell proliferation inhibition by miR-215, we transfected miR-215 precursor into HCT-116 (wt-p53) and U-2 OS cells, and evaluated the levels of cell cycle control genes p53 and p21 by western immunoblot analysis.

[8] = test system: DHFR protein; assay: Western immunoblot of DHFR protein after transfection; type: cell-based, human; conditions: HCT-116 (wt-p53)
Experimental: In this experiment, human colon cancer cell lines, HCT-116 (wt-p53), cells were transfected with miR-192 or miR-24. The cells were maintained in McCoy's 5A medium (Life Technologies). The media was supplemented with 10% dialyzed fetal bovine serum (Hyclone Laboratories). The cell line were grown at 37° C. in a humidified incubator with 5% CO2.
The HCT-116 (wt-p53) cells tranfected as follows. The cells (2×10^5) were plated in 6-well plates and transfected with 100 nmol/L of either miR-192 or miR-24 precursors or nonspecific control miR (Ambion) after 24 h with Oligofectamine (Invitrogen) according to the manufacturer's instructions.
At 48 hours after transfection with miR-192 or miR-24 precursors or nonspecific control miRNA, the cells were scraped and lysed in radioimmunoprecipitation assay buffer (Sigma). […] Horseradish peroxidase-conjugated antibodies against mouse or rabbit (1:1,000; Santa Cruz Biotechnology) were used as the secondary antibodies.

[9] = test system: HCT-116 (null-p53) cells; assay: cell cycle analysis by flow cytometry; type: cell-based, human
Experimental: To determine whether the miR-192's impact on cellular proliferation was related to cell cycle control, the effect on cell cycle control was analyzed by flow cytometry using HCT-116 (wt-p53) (FIG. 5A) and HCT-116 (null-p53) (FIG. 5B) cells transfected with non-specific control miR (left line graph) or miR-192 (right line graph). This experiment was performed as follows. The HCT-116 (wt-p53) and HCT-116 (null-p53) cells lines as described above (see Example 3) were transfected with miR-192 precursor and the non-specific control miRNA described as above (see Examples 1 and 2). At 36 hours after transfection, the cells were harvested and resuspended at 0.5-1×10^5 cells/ml in modified Krishan buffer containing 0.1% sodium citrate and 0.3% NP-40 and kept at 4° C. Before being analyzed by flow cytometry, cells were treated with 0.02 mg/ml RNase H and stained with 0.05 mg/ml propidium iodide (Sigma).

[10] = HCT-116 (null), 36 hours after transfection

B1: miR-192: microRNA miR-192 (SEQ ID NO:1), transfected into cells as miR-192 precursor (Ambion) (nucleic acid)
chain: GCCGAGACCGAGUGCACAGGGCUCUGACCUAUGAAUUGACAGCCAGUGCUCUCGUCUCCCCUCUGGCUGCCAAUUCCAUAGGUCACAGGUAUGUUCGCCUCAAUGCCAGC
modifications: delivered as precursor, further chemistry not given here
With B1 as the molecule, how does the “suppression of cellular proliferation” value [1] read?
Its value is 24%.

What about the “suppression of cellular proliferation” value [2] of the same molecule?
Its value is 15%.

What about the “suppression of cellular proliferation” value [3] of the same molecule?
Its value is “over 55%”.

And the “suppression of cellular proliferation” value [4]?
The value was 48%.

And the “DHFR mRNA expression” value [5]?
Its value is “no reduction”.

What about the “expression of Rb” value [6] of the same molecule?
The value was “decreased expression”.

And the p21 protein level [7]?
Its p21 protein level is “significant increase”.

And the “expression of DHFR protein” value ([8]; 100 nmol/L precursor, 48 hours after transfection)?
Its value is “clearly decreased”.

What about the “potency for decreasing DHFR expression” value ([8]; compared with positive control miR-24) of the same molecule?
Its value is “comparable to miR-24”.

What about the “cell cycle profile G1” value [9, 10] of the same molecule?
Its value is 35.65%.

What about the “cell cycle profile G1/S” value [9, 10] of the same molecule?
Its value is 0.79 ratio (unitless).

And the “cell cycle profile G2” value [9, 10]?
The value was 19.06%.

What about the “cell cycle profile G2/S” value [9, 10] of the same molecule?
The value was 0.42 ratio (unitless).

And the “cell cycle profile S” value [9, 10]?
Its value is 45.29%.

What about the “G1 and G2 arrest” value ([9]; HCT-116 (null-p53)) of the same molecule?
The value was “has not been observed”.
